Biological target: T1, mBest1 (Mus musculus, UniProt O88870)
T1 sequence (O88870 1-551): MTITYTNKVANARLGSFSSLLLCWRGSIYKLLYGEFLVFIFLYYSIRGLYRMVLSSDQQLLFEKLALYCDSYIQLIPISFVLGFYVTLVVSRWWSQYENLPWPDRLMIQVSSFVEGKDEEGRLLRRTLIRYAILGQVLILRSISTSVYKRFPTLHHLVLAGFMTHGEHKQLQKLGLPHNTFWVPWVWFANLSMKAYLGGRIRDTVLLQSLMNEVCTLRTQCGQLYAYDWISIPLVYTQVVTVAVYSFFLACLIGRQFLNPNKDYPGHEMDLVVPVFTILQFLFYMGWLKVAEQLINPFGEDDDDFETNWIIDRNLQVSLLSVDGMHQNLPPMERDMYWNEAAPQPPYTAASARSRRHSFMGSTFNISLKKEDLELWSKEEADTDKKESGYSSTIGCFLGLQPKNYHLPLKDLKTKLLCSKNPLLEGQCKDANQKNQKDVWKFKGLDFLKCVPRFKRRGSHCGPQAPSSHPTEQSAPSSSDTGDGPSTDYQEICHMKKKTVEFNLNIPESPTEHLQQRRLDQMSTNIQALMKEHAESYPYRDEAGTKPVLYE
Experiment: Whole cell patch clamp of mBest1-expressing HEK293T cells
Type: cell-based
Parameters: the full-length mBest1 was cloned from both astrocyte and testis cDNAs and transiently expressed in HEK293T cells; expressed in transfected cells; host or cells: HEK293T cells (ATCC)
Details: HEK293T cells transfected with mBest1 cDNA
Procedure: In order to express mBest1 in mammalian cells, an mBest1 full-length fragment from pGEM-T easy plasmid (6.65 kb, Promega) was subcloned into pcDNA 3.1 (Invitrogen) by HindIII site and NotI site. The plasmid constructs were transfected into HEK293T cells (ATCC) using Effectene transfection reagent (Qiagen). To carry out whole cell patch clamp recordings, 1.5˜2 μg of plasmid, which was obtained by cloning mBest1 in cDNA extracted from mouse brain or cultured astrocytes, and then, subcloning into pcDNA3.1 plasmid (Invitrogen), plus pEGFP-N1 (Clontech) were used to transfect one 35 mm culture dish. One day after transfection, cells were replated onto glass coverslips for electrophysiological recording. Transfected cells were identified by EGFP fluorescence and used for patch clamp experiments within 24-36 hrs.
Patch pipettes which have 3-6MΩ of resistance are filled with the standard intracellular solution. Current voltage curves were established by applying 100- or 200-ms-duration voltage ramps from −100 to +100 mV. The ramp duration was 10 s. […] The concentration of free [Ca^2+]i in the solution was determined (Kuruma, A. & Hartzell, H. C. Bimodal control of a Ca(^2+)-activated Cl(−) channel by difference Ca(^2+) signals. J Gen Physiol 115, 59-80 (2000), which is hereby incorporated by reference for all purposes as if fully set forth herein). […]

B1: mBest1 shRNA: mBest1-specific short hairpin RNA, SEQ ID NO: 3 and 4 (lentiviral: SEQ ID NO: 30), nucleotides 563-582 of mBest1 (nucleic acid)
chain 1: GATCCCCTTGCCAACTTGTCAATGAATTCAAGAGATTCATTGACAAGTTGGCAATTTTTA
chain 2: GGGAACGGTTGAACAGTTACTTAAGTTCTCTAAGTAACTGTTCAACCGTTAAAAATTCGA
- knock-down of mBest1 channel: specific and efficient knock-down
